Assay results: publication PMC2615091

Biological target: lamin B1 (mouse (endogenous in mouse embryonic fibroblasts)) (UniProt P14733)
Assay: FRET or BRET

Chain of UniProt P14733 (P14733 whole entry): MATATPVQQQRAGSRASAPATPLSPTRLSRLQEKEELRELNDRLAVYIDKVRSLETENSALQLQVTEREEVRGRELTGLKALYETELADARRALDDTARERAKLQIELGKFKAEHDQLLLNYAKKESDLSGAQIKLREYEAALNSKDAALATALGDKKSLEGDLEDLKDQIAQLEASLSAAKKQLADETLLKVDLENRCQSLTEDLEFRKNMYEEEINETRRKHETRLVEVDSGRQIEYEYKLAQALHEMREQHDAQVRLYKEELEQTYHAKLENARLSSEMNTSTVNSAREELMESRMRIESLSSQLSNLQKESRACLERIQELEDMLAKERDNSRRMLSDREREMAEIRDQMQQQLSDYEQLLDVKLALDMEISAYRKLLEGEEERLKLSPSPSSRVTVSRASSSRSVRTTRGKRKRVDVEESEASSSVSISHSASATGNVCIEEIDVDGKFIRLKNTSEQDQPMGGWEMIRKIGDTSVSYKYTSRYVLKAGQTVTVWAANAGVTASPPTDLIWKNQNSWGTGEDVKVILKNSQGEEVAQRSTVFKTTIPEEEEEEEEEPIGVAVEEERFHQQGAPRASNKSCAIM

- FRET efficiency: 4.63%
Substance: Oct-1–EGFP (from UniProt P14859 1-743) (natural protein)
